{
  "source": "patent US20140271602",
  "about": "“NUCLEOTIDE-SPECIFIC RECOGNITION SEQUENCES FOR DESIGNER TAL EFFECTORS” (THE BROAD INSTITUTE INC., published 2014)",
  "molecules": {"B1": {"name": "CACNA1C site 2 (dsDNA)", "DNA 1": "TGGTAGACCTTAGGGCTA", "DNA 2": "TAGCCCTAAGGTCTACCA"}},
  "key": {"[1]": {"test_system": "AAVS1 left TALEN (Xanthomonas (engineered))", "assay": "cell_activity", "details": "Surveyor assay, with right TALEN, 293FT"}, "[2]": {"test_system": "NN-TALE (RVD screening) (Xanthomonas (engineered))", "assay": "cell_activity", "details": "luciferase reporter"}, "[3]": {"test_system": "NH-TALE (RVD screening) (Xanthomonas (engineered))", "assay": "cell_activity", "details": "luciferase reporter"}, "[4]": {"test_system": "SOX2 TALE-TF (Xanthomonas (engineered))", "assay": "cell_activity", "details": "endogenous SOX2"}, "[5]": {"test_system": "AAVS1 right TALEN (Xanthomonas (engineered))", "assay": "cell_activity", "details": "Surveyor assay, with left TALEN, 293FT"}, "[6]": {"molecular_target": "T1, TALE2-NH (CACNA1C site 2 activator) (Xanthomonas (engineered), UniProt P14727 SEQ:1-983)", "T1 chain": "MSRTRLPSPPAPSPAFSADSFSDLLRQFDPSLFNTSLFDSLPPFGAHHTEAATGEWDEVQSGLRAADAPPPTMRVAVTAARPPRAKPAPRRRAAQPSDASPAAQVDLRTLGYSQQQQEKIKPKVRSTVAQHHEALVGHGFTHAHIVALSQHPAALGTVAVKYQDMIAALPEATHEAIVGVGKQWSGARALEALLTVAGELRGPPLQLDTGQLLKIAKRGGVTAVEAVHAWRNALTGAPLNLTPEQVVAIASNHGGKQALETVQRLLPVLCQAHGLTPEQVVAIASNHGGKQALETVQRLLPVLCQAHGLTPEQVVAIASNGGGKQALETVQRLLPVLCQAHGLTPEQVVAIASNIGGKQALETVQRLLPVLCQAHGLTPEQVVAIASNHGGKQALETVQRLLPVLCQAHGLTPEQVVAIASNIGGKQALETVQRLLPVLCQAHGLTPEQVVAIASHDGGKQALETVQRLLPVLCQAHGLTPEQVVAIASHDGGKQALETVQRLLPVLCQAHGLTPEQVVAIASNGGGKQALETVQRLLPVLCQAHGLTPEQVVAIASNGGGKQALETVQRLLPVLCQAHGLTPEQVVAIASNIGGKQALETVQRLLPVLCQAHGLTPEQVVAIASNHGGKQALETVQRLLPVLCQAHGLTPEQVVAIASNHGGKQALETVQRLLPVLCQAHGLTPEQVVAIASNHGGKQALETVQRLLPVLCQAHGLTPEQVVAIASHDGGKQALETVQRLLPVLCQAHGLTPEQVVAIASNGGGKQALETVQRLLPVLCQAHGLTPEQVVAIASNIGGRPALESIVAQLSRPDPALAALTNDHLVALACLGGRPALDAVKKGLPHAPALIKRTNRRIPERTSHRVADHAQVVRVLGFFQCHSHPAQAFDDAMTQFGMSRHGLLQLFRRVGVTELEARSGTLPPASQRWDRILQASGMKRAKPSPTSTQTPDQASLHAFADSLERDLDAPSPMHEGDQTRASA", "assay": "cell_activity; HEK 293FT, endogenous mRNA; reporter 2.7x that of NK", "details": "tags: VP64, 2A-GFP"}, "[7]": {"molecular_target": "T2, TALE2-NN (CACNA1C site 2 activator) (Xanthomonas (engineered), UniProt P14727 SEQ:1-983)", "T2 chain": "T1 chain with H253N, H287N, H389N, H627N, H661N, H695N", "assay": "cell_activity; HEK 293FT, endogenous CACNA1C mRNA", "details": "tags: VP64, 2A-GFP", "description": "Changes in mRNA are measured using qRT-PCR as described previously. VP64, VP64 transcription activation domain. All results are collected from three independent experiments in HEK 293FT cells. Error bars indicate s.e.m.; n=3. FIG. 19(b) discloses SEQ ID NOS 63 and 62, respectively, in order of appearance.\nUsing qRT-PCR, the performance of NN, NK, NH, and HN for targeting endogenous genomic sequences was further compared. The ability of NN-, NK-, NH-, and HN-TALEs to activate CACNA1C transcription by targeting the two endogenous target sites was tested (FIG. 19b). […] Both TALE 1-NH and TALE2-NH were able to achieve similar levels of transcriptional activation as TALE1-NN and TALE2-NN (˜5 and ˜3 folds of activation for targets 1 and 2, respectively) and twice more than TALE-NK and TALE2-NK (FIG. 19b). […] On the other hand, based on all the results from specificity and endogenous activity tests, the RVD NH seems to be a more suitable substitute for NN than NK when higher targeting specificity is desired, as it also provides higher levels of biological activity. Further testing using additional endogenous genomic targets helps validate the broad utility of NH as a highly specific G-targeting RVD.\nFor the endogenous gene transcriptional level assay to test the biological activities of TALE activators and TALE repressors, HEK 293FT cells were seeded into 24-well plates. […]"}},
  "note": "Changes are numbered by the printed parent chain.",
  "data": [
    {"molecule": "TGTCCCCTCCACCCCACA (double strand) [AAVS1 left TALEN site]", "values": [
      {"measurement": "activity (% cleavage (pair))", "setting": "[1]", "result": "< 3.6"}
    ]},
    {"molecule": "TTCTTGGTTATAAC (double strand) [RVD screen G-reporter]", "values": [
      {"measurement": "binding signal (G- to A-reporter activation ratio)", "setting": "[2]", "result": 3.5},
      {"measurement": "binding signal (G- to A-reporter activation ratio)", "setting": "[3]", "result": 16.4}
    ]},
    {"molecule": "SOX2 TALE-TF site", "values": [
      {"measurement": "activity (fold activation)", "setting": "[4]", "result": "< 5"}
    ]},
    {"molecule": "GTCCTAACCACTGTCTTT (double strand) [AAVS1 right TALEN site]", "values": [
      {"measurement": "activity (% cleavage (pair))", "setting": "[5]", "result": "< 3.6"}
    ]},
    {"molecule": "B1", "values": [
      {"measurement": "activity", "setting": "[6]", "result": "~3", "unit": "fold activation"},
      {"measurement": "activity", "setting": "[7]", "result": "~3", "unit": "fold activation"}
    ]}
  ]
}
